Source: article doi:10.1101/2024.04.19.590217 (bioRxiv, 2024)

Biological target: the molecule itself
Test: cryo-EM structure

B1: Simian Virus 40 (SV40) Large Tumour Antigen (LTag) (enzyme)
chain: MDKVLNREESLQLMDLLGLERSAWGNIPLMRKAYLKKCKEFHPDKGGDEEKMKKMNTLYKKMEDGVKYAHQPDFGGFWDATEIPTYGTDEWEQWWNAFNEENLFCSEEMPSSDDEATADSQHSTPPKKKRKVEDPKDFPSELLSFLSHAVFSNRTLACFAIYTTKEKAALLYKKIMEKYSVTFISRHNSYNHNILFFLTPHRHRVSAINNYAQKLCTFSFLICKGVNKEYLMYSALTRDPFSVIEESLPGGLKEHDFNPEEAEETKQVSWKLVTEYAMETKCDDVLLLLGMYLEFQYSFEMCLKCIKKEQPSHYKYHEKHYANAAIFADSKNQKTICQQAVDTVLAKKRVDSLQLTREQMLTNRFNDLLDRMDIMFGSTGSADIEEWMAGVAWLHCLLPKMDSVVYDFLKCMVYNIPKKRYWLFKGPIDSGKTTLAAALLELCGGKALNVNLPLDRLNFELGVAIDQFLVVFEDVKGTGGESRDLPSGQGINNLDNLRDYLDGSVKVNLEKKHLNKRTQIFPPGIVTMNEYSVPKTLQARFVKQIDFRPKDYLKHCLERSEFLLEKRIIQSGIALLLMLIWYRPVAEFAQSIQSRIVEWKERLDKEFSLSVYQKMKFNVAMGIGVLDWLRNSDDDDEDSQENADKNEDGGEKNMEDSGHETGIDSQSQGSFQAPQSSQSVHDHNQPYHICRGFTCFKKPPTPPPEPET
B1 was tested, and the “stoichiometry N” value was 6.
